This series deals with the molecule itself. Kind of series: native gel or EMSA.

In general, stoichiometry N refers to a count of units in the complex or per binding partner.

B1: acid-gated ASIC1 channel (natural protein, mouse (endogenous in brain), UniProt Q6NXK8 1-526, looked up)
chain: MELKTEEEEVGGVQPVSIQAFASSSTLHGLAHIFSYERLSLKRALWALCFLGSLAVLLCVCTERVQYYFCYHHVTKLDEVAASQLTFPAVTLCNLNEFRFSQVSKNDLYHAGELLALLNNRYEIPDTQMADEKQLEILQDKANFRSFKPKPFNMREFYDRAGHDIRDMLLSCHFRGEACSAEDFKVVFTRYGKCYTFNSGQDGRPRLKTMKGGTGNGLEIMLDIQQDEYLPVWGETDETSFEAGIKVQIHSQDEPPFIDQLGFGVAPGFQTFVSCQEQRLIYLPSPWGTCNAVTMDSDFFDSYSITACRIDCETRYLVENCNCRMVHMPGDAPYCTPEQYKECADPALDFLVEKDQEYCVCEMPCNLTRYGKELSMVKIPSKASAKYLAKKFNKSEQYIGENILVLDIFFEVLNYETIEQKKAYEIAGLLGDIGGQMGLFIGASILTVLELFDYAYEVIKHRLCRRGKCQKEAKRNSADKGVALSLDDVKRHNPCESLRGHPAGMTYAANILPHHPARGTFEDFTC
Take B1: the “stoichiometry N” value is 3.

B2: voltage-gated HCN1 channel (natural protein, mouse (endogenous in brain), UniProt O88704 1-910, looked up)
chain: MEGGGKPNSASNSRDDGNSVFPSKAPATGPVAADKRLGTPPGGGAAGKEHGNSVCFKVDGGGGEEPAGSFEDAEGPRRQYGFMQRQFTSMLQPGVNKFSLRMFGSQKAVEKEQERVKTAGFWIIHPYSDFRFYWDLIMLIMMVGNLVIIPVGITFFTEQTTTPWIIFNVASDTVFLLDLIMNFRTGTVNEDSSEIILDPKVIKMNYLKSWFVVDFISSIPVDYIFLIVEKGMDSEVYKTARALRIVRFTKILSLLRLLRLSRLIRYIHQWEEIFHMTYDLASAVVRIFNLIGMMLLLCHWDGCLQFLVPLLQDFPPDCWVSLNEMVNDSWGKQYSYALFKAMSHMLCIGYGAQAPVSMSDLWITMLSMIVGATCYAMFVGHATALIQSLDSSRRQYQEKYKQVEQYMSFHKLPADMRQKIHDYYEHRYQGKIFDEENILSELNDPLREEIVNFNCRKLVATMPLFANADPNFVTAMLSKLRFEVFQPGDYIIREGAVGKKMYFIQHGVAGVITKSSKEMKLTDGSYFGEICLLTKGRRTASVRADTYCRLYSLSVDNFNEVLEEYPMMRRAFETVAIDRLDRIGKKNSILLQKFQKDLNTGVFNNQENEILKQIVKHDREMVQAIPPINYPQMTALNCTSSTTTPTSRMRTQSPPVYTATSLSHSNLHSPSPSTQTPQPSAILSPCSYTTAVCSPPIQSPLATRTFHYASPTASQLSLMQQPQQQLPQSQVQQTQTQTQQQQQQQQQQQQQQQQQQQQQQQQQQQQQQQQQQQQQPQTPGSSTPKNEVHKSTQALHNTNLTKEVRPLSASQPSLPHEVSTLISRPHPTVGESLASIPQPVAAVHSTGLQAGSRSTVPQRVTLFRQMSSGAIPPNRGVPPAPPPPAAVQRESPSVLNTDPDAEKPRFASNL
Turning to B2, the “stoichiometry N” value was determined as 4.

The values above are taken from article PMC10592209 (Neuron, 2023).
